According to patent US20050013867A1, “Use of proton sequestering agents in drug formulations” (priority 2001, published 2005):
Read-outs that look alike come from different tables or passages of the source.

What was measured:
[1] = Degradation rate of parathyroid hormone in solution ± disodium citrate, by high pressure liquid chromatography; type: physicochemical; conditions: 1 mg/mL parathyroid hormone ± disodium citrate, pH 3, 40° C.
Procedure: Determine the degradation rates of parathyroid hormone (1 mg/mL; 0.24 mM)±disodium citrate at pH 3 at 40° C. In separate aliquots, incubate with the following amounts of disodium citrate ([…]; 57.3 μg/mL, 0.24 mM; and 5.73 μg/mL, 0.024 mM). Include a control aliquot containing parathyroid hormone lacking disodium citrate. High pressure liquid chromatography is used to measure the degradation of parathyroid hormone at various time points.

[2] = aqueous solution, general indicator of proton affinity, cited from earlier work

For parathyroid hormone, the “retention of activity (degradation by HPLC)” value [1] is listed as “retains more activity in the citrate solution”, the “pKa of C-terminal carboxylate” value [2] is listed as “≈ 3.5” and the “pKa of carboxylate sidechains of aspartic and glutamic acid” value [2] is listed as “≈ 4.8”. The “pKa of C-terminal carboxylate” value ([2]; listed as PTH) was 3.5 and the “pKa of carboxylate sidechains of aspartic and glutamic acid” value ([2]; listed as PTH) was 4.8.
